According to patent publication US20230287088A1:
Substitutions are numbered along the chain they refer to. Where two headings read alike, the source gives them in different places.

What was measured:
[1] = molecular target: T1, SARS-CoV-2 spike protein (wild-type) on VSV pseudovirus (SARS-CoV-2), P0DTC2
[2] = molecular target: T1, SARS-CoV-2 spike protein (wild-type) on …; remark: listed apart in the source
[3] = molecular target: T1, SARS-CoV-2 spike protein (wild-type) on …; remark: listed apart in the source
[4] = molecular target: T1, SARS-CoV-2 spike protein (wild-type) on …; remark: listed apart in the source
[5] = molecular target: T1, SARS-CoV-2 spike protein (wild-type) on …; remark: listed apart in the source
[6] = molecular target: T1, SARS-CoV-2 spike protein (wild-type) on …; experiment: cell-based or functional assay
[7] = molecular target: T1, SARS-CoV-2 spike protein (wild-type) on …; remark: listed apart in the source
[8] = molecular target: T1, SARS-CoV-2 spike protein (wild-type) on …; remark: listed apart in the source

B1: P043.A.00092.C12 (antibody)
heavy chain: QEELKETGGGLVQPGGSLTLSCKASGFDFSSYYMSWVRQAPGKGLEWIGVIYASKGSTDYASWVNGRFTISSDNAQNTVDLQMNSLTAADTATYYCARSKRFYTYGYAGYAYAHYYYGMDLWGPGTLVTVSS
light chain: AIQMTQSPSSLAASVGDTVTITCKASEDIGYGLNWYQQKLGIAPKLLIYGADTLESGVPSRFSGSGSETDYTLTISSVQAEDAGIYYCQQGYSTPLTFGAGTKVEIK
B1 showed an IC50 (pVNT, GFP-positive infected cells) [1] of 0.31 µg/ml and an IC90 (pVNT, GFP-positive infected cells) [1] of 3.79 µg/ml.

B2: P043.A.00023.E05 (antibody)
heavy chain: QSLEESGGRLVTPGTPLTLTCTVSGFSLSSYAMSWVRQAPGKGLEWIGIISSSGSTYYASWAKGRFTISKTSTTVDLKITSPTTEDTATYFCARDASSRGYYYYYGMDPWGPGTLVTVSS
light chain: B1 light chain with D52N
For B2, the IC50 (pVNT, GFP-positive infected cells) [1] was 3.75 µg/ml and the IC90 (pVNT, GFP-positive infected cells) [1] was 16.6 µg/ml.

B3: P043.A.00097.B02 (antibody)
heavy chain: QELVESGGGLVQAGESLKLSCKASGIDFSSYGISWVRQAPGKGLEWIAYIYPGFGITNYANSVKGRFTISSDNAQNTVFLQMTSLTASDTATYFCTRAYASSSGYYIHYFNLWGPGTLVTVSS
light chain: B1 light chain with D52N, G91A
B3 gave an IC50 (pVNT, GFP-positive infected cells) [1] of 7.84 µg/ml and an IC90 (pVNT, GFP-positive infected cells) [1] of 24.2 µg/ml.

B4: P043.A.00024.C11 (protein sample ID 451) (antibody, V domains shown)
VH: B2 heavy chain with L3V, S55T, R65P, D95G, A96G, S97A, S98G, R99Y, Y102A, Y103H
VL: B1 light chain with D52N
Binder B4 has an IC50 (pVNT, GFP-positive infected cells) [1] of 4.74 µg/ml, an IC90 (pVNT, GFP-positive infected cells) [1] of 20.6 µg/ml and an IC50, pVNT (luciferase RLU, VERO 76 cells), RiboMab in HEK 293T/17 supernatant [2] of 406 ng/mL. For the same binder, the IC90, pVNT (luciferase RLU, VERO 76 cells), RiboMab in HEK 293T/17 supernatant [2] was 3810 ng/mL.

B5: P043.A.00017.E04 (antibody)
heavy chain: QSVEESGGRLVTPGTPLTLTCTVSGFSLNNYAMNWVRQAPGKGLEWIGIISSSGNTYYANWAKGRFTISKTSTTVDLKITSPTTEDTATYFCARDSYPGYSPYYGMDPWGPGTLVTVSS
light chain: B1 light chain with G30A, A43T, D52N, D70H, S93N, L96P
For B5, the IC50 (pVNT, GFP-positive infected cells) [1] was 1.19 µg/ml and the IC90 (pVNT, GFP-positive infected cells) [1] was 5.35 µg/ml.

B6: P043.A.00047.H08 (protein sample ID 447) (antibody, V domains shown)
VH: QSLEESGGDLVKPGASLTLTCTASGFSFSSDGMCWVRQAPGKGLEWIACIAAGSSGSTYYATWAQGRFTISKSSSTTVTLQMTSLTAADTATYFCAGEDYTGNNYYALWGPGTLVTVSS
VL: AIDMTQTPSPVSAVVGDTVTINCQASENIYSFLAWYQQKPGQPPKLLIYFASKLASGVPSRFKGSGSGTQFTLTISDVHSDDAAIYYCQQTGTYSDADNTFGGGTEVVVK
Work on B6 yielded an IC50 (pVNT, GFP-positive infected cells) [1] of 3.9 µg/ml, an IC90 (pVNT, GFP-positive infected cells) [1] of 18.2 µg/ml and an IC50, pVNT (luciferase RLU, VERO 76 cells), RiboMab in HEK 293T/17 supernatant [2] of 169 ng/mL. For the same binder, the IC90, pVNT (luciferase RLU, VERO 76 cells), RiboMab in HEK 293T/17 supernatant [2] was 7240 ng/mL, the IC50, pVNT (luciferase RLU), RiboMab in mouse serum, biological replicate 1 [3] was 740 ng/mL and the IC50, pVNT (luciferase RLU), RiboMab in mouse serum, biological replicate 2 [3] was 424 ng/mL. The IC90, pVNT (luciferase RLU), RiboMab in mouse serum, biological replicate 1 [3] was 6390 ng/mL and the IC90, pVNT (luciferase RLU), RiboMab in mouse serum, biological replicate 2 [3] was 4530 ng/mL.

B7: P043.A.00095.D06 (protein sample ID 470) (antibody, V domains shown)
VH: QEQLEESGGDLVKPEGSLTLTCTASGFSFSSNYWICWVRQAPGKGLEWIGCIYIGSGDTYYASWAKGRFTISKTSSTTVTLQMTSLTAADTATYFCARSYTPGSYYNMNLWGPGTLVTVSS
VL: DVVMTQTPSSVSAAVGGTVTINCQASQQISNELSWYQQKSGQPPKLLIYDASDLASGVPSRFKGSGSGTEFTLTISDLESADAATYYCQSTGGASSDGNAFGGGTEVVVK
Binder B7 has an IC50 (pVNT, GFP-positive infected cells) [1] of 0.28 µg/ml, an IC90 (pVNT, GFP-positive infected cells) [1] of 2.28 µg/ml and an IC50, pVNT (luciferase RLU, VERO 76 cells), RiboMab in HEK 293T/17 supernatant [2] of 189 ng/mL. The IC50 (read off the curve), Mouse #1 [4] was 0.05 µg/mL, the IC50 (read off the curve), Mouse #2 [4] was 0.05 µg/mL and the IC50, pVNT (luciferase RLU), RiboMab in mouse serum, biological replicate 1 [3] was 53.6 ng/mL. The IC50, pVNT (luciferase RLU), RiboMab in mouse serum, biological replicate 2 [3] was 51.8 ng/mL, the IC90, pVNT (luciferase RLU), RiboMab in mouse serum, biological replicate 1 [3] was 310 ng/mL and the IC90, pVNT (luciferase RLU), RiboMab in mouse serum, biological replicate 2 [3] was 284 ng/mL. For the same binder, the IC50 (read off the curve) [5] was 0.2 µg/mL, the IC90, pVNT (luciferase), RiboMab 470 in HEK 293T/17 supernatant [6] was 449 ng/mL and the IC90, pVNT (luciferase), RiboMab 470 in mouse serum [6] was 297 ng/mL.

B8: 465: LC of anti-S1 antibody with a C-terminal fusion of a scFv of P043.A.00017.E07 (bispecific antibody)
heavy: QMQLVQSGTEVKKPGESLKISCKGSGYGFITYWIGWVRQMPGKGLEWMGIIYPGDSETRYSPSFQGQVTISADKSINTAYLQWSSLKASDTAIYYCAGGSGISTPMDVWGQGTTVTVASTKGPSVFPLAPSSKSTSGGTAALGCLVKDYFPEPVTVSWNSGALTSGVHTFPAVLQSSGLYSLSSVVTVPSSSLGTQTYICNVNHKPSNTKVDKRVEPKSCDKTHTCPPCPAPEAAGGPSVFLFPPKPKDTLMISRTPEVTCVVVDVSHEDPEVKFNWYVDGVEVHNAKTKPREEQYNSTYRVVSVLTVLHQDWLNGKEYKCKVSNKALPAPIEKTISKAKGQPREPQVYTLPPSREEMTKNQVSLTCLVKGFYPSDIAVEWESNGQPENNYKTTPPVLDSDGSFFLYSKLTVDKSRWQQGNVFSCSVLHEALHSHYTQKSLSLSPGK
light: not shown
With B8 the IC50 (pVNT, infected cells/16 fields) [7] was 0.21 ng/ml and the IC90 (pVNT, infected cells/16 fields) [7] was 1.05 ng/ml.

B9: 467: LC of anti-S1 antibody with a C-terminal fusion of a scFv of P043.A.00024.C11 (bispecific antibody)
heavy: B8 heavy
light: not shown
B9 was tested, and the IC50 (pVNT, infected cells/16 fields) [7] was 0.46 ng/ml, the IC90 (pVNT, infected cells/16 fields) [7] was 1.42 ng/ml and the IC50 (pVNT, infected cells/16 fields) [8] was 0.4 µg/ml. The IC90 (pVNT, infected cells/16 fields) [8] was 1.19 µg/ml.
